PMC7473639, “Functionally distinct roles for T and Tbx6 during mouse development”

Tests used:
Tbx6-DBD (T-domain) [1] = biological target: T1, Tbx6-DBD (T-domain) (mouse, UniProt P70327 90-277); test: quantitative EMSA; Hill coefficient 2.97; 25 mM HEPES pH 7.4, 75 mM NaCl, 1 mM DTT, 0.25 mM EDTA, 0.1% NP-40, 1 mM MgCl2, 10% glycerol, 10 µg/ml BSA, 0.1 mg/ml poly dI-dC; room temperature, 20 min (1 h); settings: protein: recombinant; tags: N-terminal His (pET151/D-TOPO); Methods: removed by TEV; label: 32P 5' end label; blunt (annealed; only one strand given)
T1 sequence: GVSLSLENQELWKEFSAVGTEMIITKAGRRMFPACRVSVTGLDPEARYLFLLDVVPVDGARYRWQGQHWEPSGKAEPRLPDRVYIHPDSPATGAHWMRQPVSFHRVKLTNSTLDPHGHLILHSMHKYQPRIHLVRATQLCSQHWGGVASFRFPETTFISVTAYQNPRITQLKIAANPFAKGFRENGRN

[2] = biological target: T2, T-DBD (Brachyury T-domain) (mouse, UniProt P20293 41-224); test: quantitative EMSA; Hill coefficient 14.42; 25 mM HEPES pH 7.4, 75 mM NaCl, 1 mM DTT, 0.25 mM EDTA, 0.1% NP-40, 1 mM MgCl2, 10% glycerol, 10 µg/ml BSA, 0.1 mg/ml poly dI-dC; room temperature, 20 min (1 h); settings: protein: recombinant; tags: N-terminal His (pET151/D-TOPO), removed by TEV; chain copies: 2; label: 32P 5' end label; blunt (annealed; only one strand given)
T2 sequence: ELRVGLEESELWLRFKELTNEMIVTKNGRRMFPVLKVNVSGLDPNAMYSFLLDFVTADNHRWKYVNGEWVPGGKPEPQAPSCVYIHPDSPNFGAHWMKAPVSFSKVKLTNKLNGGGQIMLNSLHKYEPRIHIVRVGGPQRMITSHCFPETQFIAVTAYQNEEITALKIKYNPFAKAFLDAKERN

Tbx6-DBD (T-domain) [3] = biological target: T1, Tbx6-DBD (T-domain); test: quantitative EMSA; Hill coefficient 3.18; 25 mM HEPES pH 7.4, 75 mM NaCl, 1 mM DTT, 0.25 mM EDTA, 0.1% NP-40, 1 mM MgCl2, 10% glycerol, 10 µg/ml BSA, 0.1 mg/ml poly dI-dC; room temperature, 20 min (1 h); settings: protein: recombinant; tags: N-terminal His (pET151/D-TOPO); Methods: removed by TEV; label: 32P 5' end label; blunt (annealed; only one strand given)

B1: Dll1 BS1 (dsDNA)
DNA 1: TCACTGTAGGTGTTGCTGTCCTGT
DNA 2: ACAGGACAGCAACACCTACAGTGA
Kd (Tbx6-DBD (T-domain) [1]): 1530 nM

B2: Dll1 BS2 (dsDNA)
DNA 1: TCCCGAGGTGTGATTCTTGGA
DNA 2: TCCAAGAATCACACCTCGGGA
Kd [2]: 13900 nM
Kd (Tbx6-DBD (T-domain) [3]): 1300 nM
